# Reference: patent US20160272683A1 (Novo Nordisk, published 2016)
# Numbered stars: 1 amine (or outer) side, 2 acyl side, 3 side chain; on linkers, the order of the positions; unused ones are H or OH. Side chains are listed from the residue outwards. Ends that are not written are not given here. * marks the point of attachment. C20 diacid = O=C(O)CCCCCCCCCCCCCCCCCCC(=O)*; C18 diacid = O=C(O)CCCCCCCCCCCCCCCCC(=O)*; γGlu = O=C(O)[C@H](CCC(=O)[*:2])N[*:1]
# T1: human amylin 3(a) receptor (human calcitonin receptor co-expressed with RAMP-3) (human, UniProt P30988 25-474; O60896 24-148, limits assumed)
# T1 sequence (looked up) 1: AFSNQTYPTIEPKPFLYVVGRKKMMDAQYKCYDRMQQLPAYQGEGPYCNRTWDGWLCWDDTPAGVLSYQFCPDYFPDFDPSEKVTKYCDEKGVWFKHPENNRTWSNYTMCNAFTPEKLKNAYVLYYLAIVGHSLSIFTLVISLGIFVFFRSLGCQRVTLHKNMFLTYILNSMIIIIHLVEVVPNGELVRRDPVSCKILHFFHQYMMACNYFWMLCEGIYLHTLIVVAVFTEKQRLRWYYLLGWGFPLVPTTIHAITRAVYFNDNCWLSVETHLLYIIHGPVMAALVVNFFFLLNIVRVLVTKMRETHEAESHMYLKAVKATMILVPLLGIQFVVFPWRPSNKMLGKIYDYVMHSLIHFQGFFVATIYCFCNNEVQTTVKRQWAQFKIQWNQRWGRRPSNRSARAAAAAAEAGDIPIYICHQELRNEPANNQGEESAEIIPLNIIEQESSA
# T1 sequence (looked up) 2: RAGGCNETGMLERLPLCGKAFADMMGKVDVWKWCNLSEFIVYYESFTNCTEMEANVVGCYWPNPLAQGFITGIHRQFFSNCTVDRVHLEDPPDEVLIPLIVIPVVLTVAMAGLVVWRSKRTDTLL
# T2: human calcitonin receptor (human, UniProt P30988 25-474)
# T2 sequence (looked up): T1 sequence (looked up) 1
# B1: [N-terminal(C18 diacid-gGlu), des1, 6T, 9V, 14T, 21E, 30T, 31G, 32T]mimylin (peptide)
# peptide: {C18 diacid-γGlu}-ASELTTAVLGRLTAELHELETLPRTETGTGTP-NH2
# SMILES: CC(C)C[C@H](NC(=O)[C@H](CCC(=O)O)NC(=O)[C@H](C)NC(=O)[C@@H](NC(=O)[C@H](CC(C)C)NC(=O)[C@H](CCCNC(=N)N)NC(=O)CNC(=O)[C@H](CC(C)C)NC(=O)[C@@H](NC(=O)[C@H](C)NC(=O)[C@@H](NC(=O)[C@@H](NC(=O)[C@H](CC(C)C)NC(=O)[C@H](CCC(=O)O)NC(=O)[C@H](CO)NC(=O)[C@H](C)NC(=O)CC[C@H](NC(=O)CCCCCCCCCCCCCCCCC(=O)O)C(=O)O)[C@@H](C)O)[C@@H](C)O)C(C)C)[C@@H](C)O)C(=O)N[C@@H](Cc1c[nH]cn1)C(=O)N[C@@H](CCC(=O)O)C(=O)N[C@@H](CC(C)C)C(=O)N[C@@H](CCC(=O)O)C(=O)N[C@H](C(=O)N[C@@H](CC(C)C)C(=O)N1CCC[C@H]1C(=O)N[C@@H](CCCNC(=N)N)C(=O)N[C@H](C(=O)N[C@@H](CCC(=O)O)C(=O)N[C@H](C(=O)NCC(=O)N[C@H](C(=O)NCC(=O)N[C@H](C(=O)N1CCC[C@H]1C(N)=O)[C@@H](C)O)[C@@H](C)O)[C@@H](C)O)[C@@H](C)O)[C@@H](C)O
# B2: [N-terminal(C18 diacid-gGlu), des1, 5V, 9V, 10V, 20V, 30S, 31G]mimylin (peptide)
# peptide: {C18 diacid-γGlu}-ASEVSTAVVGRLSAELHEVATLPRTETGSGSP-NH2
# SMILES: CC(C)C[C@H](NC(=O)[C@H](CCCNC(=N)N)NC(=O)CNC(=O)[C@@H](NC(=O)[C@@H](NC(=O)[C@H](C)NC(=O)[C@@H](NC(=O)[C@H](CO)NC(=O)[C@@H](NC(=O)[C@H](CCC(=O)O)NC(=O)[C@H](CO)NC(=O)[C@H](C)NC(=O)CC[C@H](NC(=O)CCCCCCCCCCCCCCCCC(=O)O)C(=O)O)C(C)C)[C@@H](C)O)C(C)C)C(C)C)C(=O)N[C@@H](CO)C(=O)N[C@@H](C)C(=O)N[C@@H](CCC(=O)O)C(=O)N[C@@H](CC(C)C)C(=O)N[C@@H](Cc1c[nH]cn1)C(=O)N[C@@H](CCC(=O)O)C(=O)N[C@H](C(=O)N[C@@H](C)C(=O)N[C@H](C(=O)N[C@@H](CC(C)C)C(=O)N1CCC[C@H]1C(=O)N[C@@H](CCCNC(=N)N)C(=O)N[C@H](C(=O)N[C@@H](CCC(=O)O)C(=O)N[C@H](C(=O)NCC(=O)N[C@@H](CO)C(=O)NCC(=O)N[C@@H](CO)C(=O)N1CCC[C@H]1C(N)=O)[C@@H](C)O)[C@@H](C)O)[C@@H](C)O)C(C)C
# B3: [N-terminal(C18 diacid), 9I]mimylin (peptide)
# peptide: {C18 diacid}-EASELSTAILGRLSAELHELATLPRTETGPESP-NH2
# SMILES: CC[C@H](C)[C@H](NC(=O)[C@H](C)NC(=O)[C@@H](NC(=O)[C@H](CO)NC(=O)[C@H](CC(C)C)NC(=O)[C@H](CCC(=O)O)NC(=O)[C@H](CO)NC(=O)[C@H](C)NC(=O)[C@H](CCC(=O)O)NC(=O)CCCCCCCCCCCCCCCCC(=O)O)[C@@H](C)O)C(=O)N[C@@H](CC(C)C)C(=O)NCC(=O)N[C@@H](CCCNC(=N)N)C(=O)N[C@@H](CC(C)C)C(=O)N[C@@H](CO)C(=O)N[C@@H](C)C(=O)N[C@@H](CCC(=O)O)C(=O)N[C@@H](CC(C)C)C(=O)N[C@@H](Cc1c[nH]cn1)C(=O)N[C@@H](CCC(=O)O)C(=O)N[C@@H](CC(C)C)C(=O)N[C@@H](C)C(=O)N[C@H](C(=O)N[C@@H](CC(C)C)C(=O)N1CCC[C@H]1C(=O)N[C@@H](CCCNC(=N)N)C(=O)N[C@H](C(=O)N[C@@H](CCC(=O)O)C(=O)N[C@H](C(=O)NCC(=O)N1CCC[C@H]1C(=O)N[C@@H](CCC(=O)O)C(=O)N[C@@H](CO)C(=O)N1CCC[C@H]1C(N)=O)[C@@H](C)O)[C@@H](C)O)[C@@H](C)O
# B4: [N-terminal(C20 diacid-gGlu), des1, 12K, 23Y, 25K, 30S, 31G, 33Y]mimylin (peptide)
# peptide: {C20 diacid-γGlu}-ASELSTAALGKLSAELHELATYPKTETGSGSY-NH2
# SMILES: CC(C)C[C@H](NC(=O)[C@H](C)NC(=O)[C@H](C)NC(=O)[C@@H](NC(=O)[C@H](CO)NC(=O)[C@H](CC(C)C)NC(=O)[C@H](CCC(=O)O)NC(=O)[C@H](CO)NC(=O)[C@H](C)NC(=O)CC[C@H](NC(=O)CCCCCCCCCCCCCCCCCCC(=O)O)C(=O)O)[C@@H](C)O)C(=O)NCC(=O)N[C@@H](CCCCN)C(=O)N[C@@H](CC(C)C)C(=O)N[C@@H](CO)C(=O)N[C@@H](C)C(=O)N[C@@H](CCC(=O)O)C(=O)N[C@@H](CC(C)C)C(=O)N[C@@H](Cc1c[nH]cn1)C(=O)N[C@@H](CCC(=O)O)C(=O)N[C@@H](CC(C)C)C(=O)N[C@@H](C)C(=O)N[C@H](C(=O)N[C@@H](Cc1ccc(O)cc1)C(=O)N1CCC[C@H]1C(=O)N[C@@H](CCCCN)C(=O)N[C@H](C(=O)N[C@@H](CCC(=O)O)C(=O)N[C@H](C(=O)NCC(=O)N[C@@H](CO)C(=O)NCC(=O)N[C@@H](CO)C(=O)N[C@@H](Cc1ccc(O)cc1)C(N)=O)[C@@H](C)O)[C@@H](C)O)[C@@H](C)O
# B5: [N-terminal(C20 diacid-gGlu), 4G, 15Q, 21Q, 23Y, 30S, 31G, 32T, 33Y]mimylin (peptide)
# peptide: {C20 diacid-γGlu}-EASGLSTAALGRLSQELHELQTYPRTETGSGTY-NH2
# SMILES: CC(C)C[C@H](NC(=O)CNC(=O)[C@H](CO)NC(=O)[C@H](C)NC(=O)[C@H](CCC(=O)O)NC(=O)CC[C@H](NC(=O)CCCCCCCCCCCCCCCCCCC(=O)O)C(=O)O)C(=O)N[C@@H](CO)C(=O)N[C@H](C(=O)N[C@@H](C)C(=O)N[C@@H](C)C(=O)N[C@@H](CC(C)C)C(=O)NCC(=O)N[C@@H](CCCNC(=N)N)C(=O)N[C@@H](CC(C)C)C(=O)N[C@@H](CO)C(=O)N[C@@H](CCC(N)=O)C(=O)N[C@@H](CCC(=O)O)C(=O)N[C@@H](CC(C)C)C(=O)N[C@@H](Cc1c[nH]cn1)C(=O)N[C@@H](CCC(=O)O)C(=O)N[C@@H](CC(C)C)C(=O)N[C@@H](CCC(N)=O)C(=O)N[C@H](C(=O)N[C@@H](Cc1ccc(O)cc1)C(=O)N1CCC[C@H]1C(=O)N[C@@H](CCCNC(=N)N)C(=O)N[C@H](C(=O)N[C@@H](CCC(=O)O)C(=O)N[C@H](C(=O)NCC(=O)N[C@@H](CO)C(=O)NCC(=O)N[C@H](C(=O)N[C@@H](Cc1ccc(O)cc1)C(N)=O)[C@@H](C)O)[C@@H](C)O)[C@@H](C)O)[C@@H](C)O)[C@@H](C)O
# B6: [N-terminal(C20 diacid-gGlu), des1, 4G, 9V, 23Y, 30S, 31G, 32T, 33Y]mimylin (peptide)
# peptide: {C20 diacid-γGlu}-ASGLSTAVLGRLSAELHELATYPRTETGSGTY-NH2
# SMILES: CC(C)C[C@H](NC(=O)CNC(=O)[C@H](CO)NC(=O)[C@H](C)NC(=O)CC[C@H](NC(=O)CCCCCCCCCCCCCCCCCCC(=O)O)C(=O)O)C(=O)N[C@@H](CO)C(=O)N[C@H](C(=O)N[C@@H](C)C(=O)N[C@H](C(=O)N[C@@H](CC(C)C)C(=O)NCC(=O)N[C@@H](CCCNC(=N)N)C(=O)N[C@@H](CC(C)C)C(=O)N[C@@H](CO)C(=O)N[C@@H](C)C(=O)N[C@@H](CCC(=O)O)C(=O)N[C@@H](CC(C)C)C(=O)N[C@@H](Cc1c[nH]cn1)C(=O)N[C@@H](CCC(=O)O)C(=O)N[C@@H](CC(C)C)C(=O)N[C@@H](C)C(=O)N[C@H](C(=O)N[C@@H](Cc1ccc(O)cc1)C(=O)N1CCC[C@H]1C(=O)N[C@@H](CCCNC(=N)N)C(=O)N[C@H](C(=O)N[C@@H](CCC(=O)O)C(=O)N[C@H](C(=O)NCC(=O)N[C@@H](CO)C(=O)NCC(=O)N[C@H](C(=O)N[C@@H](Cc1ccc(O)cc1)C(N)=O)[C@@H](C)O)[C@@H](C)O)[C@@H](C)O)[C@@H](C)O)C(C)C)[C@@H](C)O
# B7: [des1, 4G, 15Q, 21Q, 23Y, 30S, 31K(C20 diacid-gGlu), 32T, 33Y]mimylin (peptide)
# peptide: ASGLSTAALGRLSQELHELQTYPRTETGSK([γGlu-C20 diacid])TY-NH2
# modifications: N-terminus assumed
# SMILES: CC(C)C[C@H](NC(=O)CNC(=O)[C@H](CO)NC(=O)[C@H](C)N)C(=O)N[C@@H](CO)C(=O)N[C@H](C(=O)N[C@@H](C)C(=O)N[C@@H](C)C(=O)N[C@@H](CC(C)C)C(=O)NCC(=O)N[C@@H](CCCNC(=N)N)C(=O)N[C@@H](CC(C)C)C(=O)N[C@@H](CO)C(=O)N[C@@H](CCC(N)=O)C(=O)N[C@@H](CCC(=O)O)C(=O)N[C@@H](CC(C)C)C(=O)N[C@@H](Cc1c[nH]cn1)C(=O)N[C@@H](CCC(=O)O)C(=O)N[C@@H](CC(C)C)C(=O)N[C@@H](CCC(N)=O)C(=O)N[C@H](C(=O)N[C@@H](Cc1ccc(O)cc1)C(=O)N1CCC[C@H]1C(=O)N[C@@H](CCCNC(=N)N)C(=O)N[C@H](C(=O)N[C@@H](CCC(=O)O)C(=O)N[C@H](C(=O)NCC(=O)N[C@@H](CO)C(=O)N[C@@H](CCCCNC(=O)CC[C@H](NC(=O)CCCCCCCCCCCCCCCCCCC(=O)O)C(=O)O)C(=O)N[C@H](C(=O)N[C@@H](Cc1ccc(O)cc1)C(N)=O)[C@@H](C)O)[C@@H](C)O)[C@@H](C)O)[C@@H](C)O)[C@@H](C)O
# Molecular target: T1, human amylin 3(a) receptor (human …)
# Test: cell-based or functional assay
row,hAmylin-R funct. EC50 (pM),Binder
1,235,B1
2,386,"{C18 diacid-γGlu}-ASELTTAVLGRLEAELHELTTLPRTETGTGTP-NH2 [[N-terminal(C18 diacid-gGlu), des1, 6T, 9V, 14E, 21T, 30T, 31G, 32T]mimylin]"
3,12,B2
4,16,B3
5,51,B4
6,43,B5
7,67,B6
8,68,B7

# Molecular target: T2, human calcitonin receptor
# Test: cell-based or functional assay
row,hCTR funct. EC50 (pM),Binder
1,45,B1
2,66,"{C18 diacid-γGlu}-ASELTTAVLGRLEAELHELTTLPRTETGTGTP-NH2 [[N-terminal(C18 diacid-gGlu), des1, 6T, 9V, 14E, 21T, 30T, 31G, 32T]mimylin]"
3,6,B2
4,5,B3
5,37,B4
6,23,B5
7,70,B6
8,36,B7
